This note sets out measurements from patent US20250002610A1 (Genmab, published 2025).

For assay [1], the target named is T1, human DR4 (Death Receptor 4), cell surface expressed on human tumor cell lines (human, UniProt O00220 24-468).
T1 construct: also called TNFRSF10A; TRAIL-R1
T1 sequence: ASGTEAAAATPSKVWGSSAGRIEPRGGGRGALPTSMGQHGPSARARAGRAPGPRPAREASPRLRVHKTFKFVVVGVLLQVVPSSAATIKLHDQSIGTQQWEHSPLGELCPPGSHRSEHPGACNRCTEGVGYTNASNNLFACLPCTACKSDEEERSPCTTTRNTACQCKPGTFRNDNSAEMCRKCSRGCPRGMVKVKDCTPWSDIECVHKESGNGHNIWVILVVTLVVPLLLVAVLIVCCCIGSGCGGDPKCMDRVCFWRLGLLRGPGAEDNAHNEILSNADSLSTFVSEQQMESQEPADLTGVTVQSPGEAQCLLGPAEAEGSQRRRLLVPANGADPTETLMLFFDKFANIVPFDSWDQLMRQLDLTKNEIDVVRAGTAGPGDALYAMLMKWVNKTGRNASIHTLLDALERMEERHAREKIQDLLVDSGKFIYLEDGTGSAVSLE
The assay can be described thus: flow cytometry on MDA-MB-231 cells (endogenous DR4), antibody incubated at 37 °C, gMFI PE. The procedure: Binding of C1q to membrane-bound BisG1-FAPα-FERL/DR4-FERR was assessed by flow cytometry. MDA-MB-231 cells were harvested as described in Example 3, plated (50,000 cells/well) in round-bottom 96-well plates and incubated with a concentration range of BisG1-FAPα-FERL/DR4-FERR or IgG1-b12-FER control antibody (0.003-30 μg/mL in threefold increments) at 37° C. for 30 min. To assess C1q binding, normal human serum (NHS) (Sanquin, final concentration 20%) was added as a source of C1q and the mixture was incubated at 4° C. for 45 min. Cells were washed twice with FACS buffer (PBS [Lonza, Cat. #BE17-517Q] supplemented with 0.1% [w/v] BSA [Roche, Cat. #10735086001] and 0.02% [w/v] sodium azide [NaN3; bioWORLD, Cat. #41920044-3]) and subsequently incubated with FITC-conjugated rabbit anti-human C1q antibody (DAKO, Cat. #F0254; 1:100 in FACS buffer) at 4° C. for 30 min, protected from light. Within the same experiment, binding of the DR4-antibodies to the MDA-MB-231 cells was confirmed in parallel samples after the incubation with serial dilutions of the tested antibodies.

The target of assay [2] is T2, FcγRIIa-H131 (CD32A Protein, Human, Recombinant (167 His, His Tag)) (human, UniProt P12318 34-218, limits assumed).
T2 construct: Bought reagent; not shown: His tag
T2 sequence (looked up): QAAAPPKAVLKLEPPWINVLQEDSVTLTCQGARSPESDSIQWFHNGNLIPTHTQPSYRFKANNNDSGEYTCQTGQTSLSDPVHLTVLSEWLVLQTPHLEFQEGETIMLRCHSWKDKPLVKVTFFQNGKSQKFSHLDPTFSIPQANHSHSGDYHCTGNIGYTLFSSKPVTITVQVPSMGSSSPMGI
The assay can be described thus: SPR (Biacore 8K), His-tagged FcγRIIa-H131 captured on an anti-His chip, antibody as analyte, endpoint response against concentration. The procedure:
(§1) Binding of BisG1-FAPα-FERL/DR4-FERR to immobilized human His-tagged FcγRs and FcRn was analyzed by SPR using a Biacore 8K SPR system (Cytiva). To this end, anti-His antibodies were covalently immobilized on the surface of Biacore Series S Sensor Chip CM5 (Cytiva, Cat. #29104988) using the Amine Coupling Kit (Cytiva, Cat. #BR100050) and a His Capture Kit (Cytiva, Cat. #29234602) according to the manufacturer's instructions. To assess antibody binding to immobilized human FcγRs, aliquots of the recombinant His-tagged FcγR proteins (Table 24) were diluted in HBS EP+Buffer pH 7.4 (Cytiva, Cat. #BR100669) and used to capture the FcγR proteins on the surface of the anti-His antibody-coated sensors using a flow rate of 10 μL/min and a contact time of 60 s. Captured levels ranged from 434 to 592 RU. After three start-up cycles of HBS-EP+Buffer, concentration ranges of BisG1-FAPα-FERL/DR4-FERR or IgG1-b12 antibodies (Table 25) were injected to generate binding curves on FcγR-captured sensors (active surface). For each antibody sample, a parallel flow cell without captured FcγRs was included (reference surface), which was used for RU background correction.
(§2) All sensorgrams were subtracted by the signal of the third start-up cycle with buffer only (mock analyte). […]

The target in assay [3] is T3, FcγRIIIa-F158 (CD16a Protein, Human, Recombinant (ECD, 176 Phe, His & AVI Tag)) (human, UniProt P08637 17-208).
T3 construct: extracellular domain; Bought reagent; not shown: His & AVI tag
T3 sequence (P08637 17-208): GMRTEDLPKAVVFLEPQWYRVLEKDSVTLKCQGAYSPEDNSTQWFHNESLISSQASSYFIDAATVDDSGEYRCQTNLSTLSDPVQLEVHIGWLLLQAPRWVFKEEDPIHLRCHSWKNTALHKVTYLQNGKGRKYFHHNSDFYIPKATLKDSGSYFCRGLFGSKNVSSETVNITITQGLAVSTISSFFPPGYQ
The assay can be described thus: SPR (Biacore 8K), His-tagged FcγRIIIa-F158 captured on an anti-His chip, antibody as analyte, endpoint response against concentration. The protocol:
as §1, §2

B1: BisG1-FAPα-FERL/DR4-FERR (bispecific antibody, human IgG1, kappa, lambda)
heavy 1: EVQLLESGGGLVQPGGSPRLSCEASGFTFSSYALSWVRQAPGKGLEWVSAISGSGGGRYYADSVKGRFTISRDNSKNTLFLQMNSLRAEDTAVYYCAKEGYSSSGTYWDHWGQGTLVTVSSASTKGPSVFPLAPSSKSTSGGTAALGCLVKDYFPEPVTVSWNSGALTSGVHTFPAVLQSSGLYSLSSVVTVPSSSLGTQTYICNVNHKPSNTKVDKRVEPKSCDKTHTCPPCPAPEFERGPSVFLFPPKPKDTLMISRTPEVTCVVVDVSHEDPEVKFNWYVDGVEVHNAKTKPREEQYNSTYRVVSVLTVLHQDWLNGKEYKCKVSNKALPAPIEKTISKAKGQPREPQVYTLPPSREEMTKNQVSLTCLVKGFYPSDIAVEWESNGQPENNYKTTPPVLDSDGSFLLYSKLTVDKSRWQQGNVFSCSVMHEALHNHYTQKSLSLSPG
light 1: AIQMTQSPSSVSASVGDRVTITCRASQGVSSWLAWYQQKPGRAPKLLIYVASTLQSGVPSRFSGSGSGTDFTLTINSLQPEDFATYYCQQANSFPPTFGQGTRLEMKRTVAAPSVFIFPPSDEQLKSGTASVVCLLNNFYPREAKVQWKVDNALQSGNSQESVTEQDSKDSTYSLSSTLTLSKADYEKHKVYACEVTHQGLSSPVTKSFNRGEC
heavy 2: QVQLQESGPGLVKPSGTLSLTCAVSGGSISSYSWWSWIRQPPGKGLEWIGELYHSGSTNYNPSLKSRVTISVDKSKNQFSLKLRSVTAADTAVYYCVRGVATIDYWGQGTLVTVSSASTKGPSVFPLAPSSKSTSGGTAALGCLVKDYFPEPVTVSWNSGALTSGVHTFPAVLQSSGLYSLSSVVTVPSSSLGTQTYICNVNHKPSNTKVDKRVEPKSCDKTHTCPPCPAPEFERGPSVFLFPPKPKDTLMISRTPEVTCVVVDVSHEDPEVKFNWYVDGVEVHNAKTKPREEQYNSTYRVVSVLTVLHQDWLNGKEYKCKVSNKALPAPIEKTISKAKGQPREPQVYTLPPSREEMTKNQVSLTCLVKGFYPSDIAVEWESNGQPENNYKTTPPVLDSDGSFFLYSRLTVDKSRWQQGNVFSCSVMHEALHNHYTQKSLSLSPG
light 2: QSALTQPPSASGSPGQSVTISCTGTSSDVGGYNFVSWYQQDPGKAPKLLIYEVTKRPSGVPDRFSGSKSGNTASLTVSGLQAEDEADYYCSSYAGSNNVMFGGGTKLTVLGQPKAAPSVTLFPPSSEELQANKATLVCLISDFYPGAVTVAWKADSSPVKAGVETTTPSKQSNNKYAASSYLSLTPEQWKSHRSYSCQVTHEGSTVEKTVAPTECS
notes: Human IgG1 bispecific made by controlled Fab-arm exchange of IgG1-FAPα-FERL and IgG1-DR4-FERR; monovalent for FAPα and for DR4; also called GEN1057
Take B1: in assay [1], the 50% effective concentration (EC50 (read off the curve)) was roughly 0.5 µg/mL.

B2: IgG1-b12 (antibody)
heavy: not shown
light: EIVLTQSPGTLSLSPGERATFSCRSSHSIRSRRVAWYQHKPGQAPRLVIHGVSNRASGISDRFSGSGSGTDFTLTITRVEPEDFALYYCQVYGASSYTFGQGTKLERKRTVAAPSVFIFPPSDEQLKSGTASVVCLLNNFYPREAKVQWKVDNALQSGNSQESVTEQDSKDSTYSLSSTLTLSKADYEKHKVYACEVTHQGLSSPVTKSFNRGEC
notes: HIV gp120 antibody b12 with wild-type IgG1 Fc; also called IgG-b12
In the case of B2, the binding result in assay [2] and in assay [3] was “binds” each time.
